Assay: soluble on expression in E. coli; label from the status in PepcDB or PDB records

| Sequence | soluble on expression in E. coli |
| --- | --- |
| MGSDKIHHHHHHMTEITTLTQFLSTANTQFQVYDLGRRVQHIDMMAFSQIEALQAPYPSPIQGHAQFAIVFWDDSNQHFIWFLKLPLDERGLLSPAPRTQFIRMVIEALGSDPTQALSQDQQDTLANHPFAFKPSAEKLALFNALVRKQLGLPASAQYEFAYQYLSGQVSPERWQDVGLQGLADICVRAAALDHNEQLLNALEHSADEVKIALCQQLEHITLDAPLAERLLSAFYQGSPEQKLYYLRALASAPALAQQAIQYLDEQDALDDNALITIAGRNWTALKDDQTRKIYLEALAKQPQGFFNQIFADIVAIPAIRTQLLMALRDSERSQALANAIGGLFRVTKA | not soluble |
| MGSDKIHHHHHHKEQNLDDFEQEYQNYQVNDPLSGYNKAMTSFNVALYDYGLRPVLKGYNAITPEFIRLGARNFFDNLLAPLRFVSNVLQFKFEEAGEEFKRFTANTIMGFGGLMDVASKMGLKKHPADLGTVLAHWGVGSGFHIVLPILGPSNLRDTLTLPATWYASFTAYIDPTWASIAISAYGFGNELSFRLDEIDEIYHNTPNLYPFLRDAYEQRRNELSK | not soluble |
| MAIIKRSAATDNPNIEILSTPEQIDVLSAEALMEALQGDDLEQILRAIHQLEAADSVEFQQHQAALFTLLDRDTEQNPCSDAVFSLLAIRNNDEITTRLIPLLDSEAPYLRNQAIEILQHSPQQLERHIQDLLNHQDPDVRIFAIDIIGLLPHQSVPEWLMQVLQHEEHINVIGTAIDRVAQLSDPNFSTILGEVKQRFSHVPYLVFACDVAIKRLNT | not soluble |
| MSLRFDGKVAIVTGAGGGLGKTYALELAKRGCKVVVNDLGGDRHGTSSSSSMADKVVQEIKSAGGQAVANYDSVEFGDKIVKTAIDNFGRIDIVINNAGILRDVSFLKMTELDWDLIFKVHVKGAYAVTKAAWPYMRDQKYGRIVVTSSNAGVHGNFGQANYAAAKSALIGLSNSLAQEGAKYNILANTLVPTAGSRLTETVMPQNLVDALKPDYVTPLVTYMVHDSFEESGKVFEAGAGWYGTIQYYKSKGKVISHASADDIAKNWSTITNMNGAEYIGTITEQSARLVSILEEHEASSGSSSASSGASSGGAFPSNIRSSALFQEMADGVKADPTAVKTLKSIVLYIITDGKNELGKFTLDFKSASPSVYLGDVKNGEKANATVTVADSDFVDIAAGKLNAQKAFMSGKLKVKGNVMLLQKLQTVLEKAKKSKL | not soluble |
| MANLIYLTLNGDNQGLISSGCSSQPSIGNKAQTAHIDQIMIYEFMHGLNRDQNVNHHHLTIKKPIDKASPLLGKAICDNELLTCDFSFYRTNKFGINELFYKIKLTGAKISDIHVSISHIVVDNSVQPEESVSFSYESIIWEHCSAGTSAYSLWEDRLF | not soluble |
| MGSDKIHHHHHHMPNIIIIERDINYLKIFIKCMKESGFEVVCMNNTKLVSQVAQKQLPDLIICSLEIAKQNNCNFWNNLCQNFVTATIPLIFLINEASEIYQCPEFAADGYITKFCTTEELNKAIKAQLAKQAARKHGYAIQSQQVLNSPSIGNDQPNVQSILPSIPRLNLVFEFIAANYDKPISLCDVAEALGYSATYLTTVVTQTTGKSLQKWIIECRITAAQILLLQTDQSVNQIALKVGYENLAHFYRQFRDYHGTSPQVWREVEKSHNSHQLNKDKASLNSNNFGDFQ | not soluble |
| GGFDGHTHSAGKINVGRFINPNDARKNPVPGLSGQVARTEKTRAQVGYNTPNTYAIGYRYAKLGYTTICEAAIPLLAARHTHEEFKEIPILDKMGLSLFGSNWQVMEYIRDKEPEKLAAYIAWGLKASRGYGVKIVNPGGGEAWGWGRNVSGLYDPVPNFDVTPAEILLGLAEANERLQLPHSIHVHCNNLGKPGNYATTIETMKLLEKVKPSRDRQALHVTHVQFNAYAGTSWRDFETGAPMVADYINGANHLTFDLGQVIFGPAVTMTADGPVEYANSRMLHEKWSNQDIELEDASGVVPLFYSPKSFVNAVQWAIGLELALLVKDPWKVMFTTDSPNGGSFVNYPEAFTYLMSAKRREEVISGFSKMALDRMVLPGIDRELDFYELAVMTRSTQSKMYSMPEKGNLKVGSDADIAIYDILPGQVDPSTEYAKVKKAFSAASYTLKSGEVVVKDG | not soluble |
| MAQGYRRDHNHHHESGYKRPSDPGGDLPSDKRHRPPPAEGRTLSADRRLYERHFPLYKQPLELGCFSLDARRNFFNDHRQLRYYVEPRRSPDFNLRDGYTSRFIKRDDGVKEKLDHMLRWILENRHKMQNSNSSSCALGVDFITWRGHLTKVLTTPYETQEGWMMAACKFRGSIYISEVETEQARENRETRSERQEEMMYWGYKFEQYTCADGADGTPDPGGVVNTNEAFCTVVQTRLADQSQTLRV | not soluble |
| MAHHHHHHMLRVIVRRLAWRPAAIQHLPDLGSKDAPKKTEDTQRQYRPLSLRARQALAEKSDEVQYHVITQDWFGQRVDTFLTQHHPEWSYETMKTLVQQGHIYRYRKNGKKRFTRITDRLEFDELLVVPTPVFYERQLAPPTGVLQESKKPTHFKLSSQVREMAHNMVLFKNEHVIVINKPHGVPMMPTSDPQEMNIAAMLSAWKYTNSTKPIVCHNLDKETSGCVVLARSKNAHRMLARMFVKRVVPNSVYWGFCVGKPSVNFGRIRMHFEMTRGTKGDIIVARPSPTKTSKVGIAEFVVNASALEFGSFISFYPLTTRRHQERIMAAHALRSPLLGDAKYGGESAFPSSMSLFWDPEDKGLPLHLHHRKIQLPYKNSTGEFVCVTAPLPIHMEKTFKKLGWPCDVDDPLIPG | not soluble |
| MKKNLLAIALGSVIALTAAPYSLAANDSTIQSSADYSQLVTKRQVVDQLLNDAVEAFKSPARISHAGFTAKMPSNMEIVTDRLLEAYQLEPYRTDLLISAANAQIYNKNVDRAIELFEQALAVAPDDVDLHAYLAVWQRFKGNQAESDQHMATLAKLNAGKAADINRIFDTVDRVLATPLKEKADKGKLDNKGAIVTLGYALNPDGSMHQILVERLETTLAMAKANPDAIIILTGGVPKNHKTEGKLMADWLIGKGVSKDRIIEENYATSTVGNALFSSYALARHNIKHATIISSASHVRRGQTLFEIASWQTGPQGITFDTVSYPDKPLKDLAKASESELLGIYRDALRTYGMWSYRSYPLESRLEHHHHHH | soluble |
| MSLSETTQTSQSLYQALWNSADVLRSKMDANDYKSYLLGMVFYKYLSDKMLFFVAETMEEETESLDEALAVYRKYYEDEETHEDLLAVITDEMSYAIHPDLTFTALVERVNDGSFQLEDLAQGFRDIEQSDELYENLFEDIDLYSKKLGATPQKQNQTVAAVMKELAVLDVAGHAGDMLGDAYEYLIGQFATDSGKKAGEFYTPQPVAKLMTQIAFLGREDKQGFTLYDATMGSGSLLLNAKRYSRQPQTVVYFGQELNTSTYNLARMNMILHGVPIENQFLHNADTLDEDWPTQEPTNFDGVLMNPPYSAKWSASSGFMDDPRFSPFGKLAPKSKADFAFLLHGYYHLKQDNGVMAIVLPHGVLFRGNAEGTIRKALLEEGAIDTVIGLPANIFFNTSIPTTVIILKKNRTNRDVYFIDASKEFDKGKNQNIMTDAHIEKILNAYKSREDIDKFAHLASFEEIVENDYNLNIPRYVDTFEEEEVEPLTEIVAKINQTNATIESQTASLLDMLGQLHGTTPEADEELKAFVKAFKGEGHHHHHH | soluble |
| MGSDKIHHHHHHMEELRSGSSVCRVSRRGAFVSSLRISNMEILKRSSDRYATHGGMAILIPYADIVSDGTYTWHGRRYQLPRNAGYEGNFTDSIHGLVKSAYFSIIYKDVDSILLKYALERSGYPSRLNIYVNYAVQHDSLGTVISVENTGNNEAPLVCGSHPYFLYRDFWFIKFSNSAVRLFSGGDLSLRKDESVNFLTKKIEGYYDDSFYSDGMILLVSSDRMIELDRRSMPYFEVYDGKYAERRSLAVEPMTGAPNAYNNKIGLIDLKPGETFLCGFDIRVASI | not soluble |
| MENKTIQLFGNITGGPIELHSQTGSRRRRDTVENAGKSAWDTAGDVGKSVIDTVENAGAAVKNGASDLDEKLMGSG | not soluble |
| MKLERVLPFARSLLQTAVKEGDYAVDATLGNGHDTCFLAEIVGDNGKVFGFDIQKEAIESSTTRLKEKELFERTVLVHDSHDTLLSILPEDAKGKVTGAIFNLGYLPGGDKHIVTKPNSTISAIEQLLEVMAPEGIIVLVIYHGHPEGQVERDAVLKFAEELDQKQAHVLRYGFINQQNNPPFIVAIEKRLEHHHHHH | soluble |
| MAIINGSQYIERVDNLQSNVWINGERVVGKLSEHPAFAGAIRSQARLYDAQHDPTKQPVLTFRTSTGELAGAAFLRPATKEDLEHRRLAFQEWARLTAGMMGRSPDYMNHRRDGARLGR | not soluble |
| VVRRLTSPRLEFEAAAIYEYPEHLRSFLNDLPTRPGVYLFHGESDTMPLYIGKSVNIRSRVLSHLRTPDEAAMLRQSRRISWICTAGEIGALLLEARLIKEQQPLFNKRLRRNRQLCALQLNEKRVDVVYAKEVDFSRAPNLFGLFANRRAALQALQTIADEQKLCYGLLGLEPLSRGRACFRSALKRCAGACCGKESHEEHALRLRQSLERLRVVCWPWQGAVALKEQHPEMTQYHIIQNWLWLGAVNSLEEATTLIRTPAGFDHDGYKILCKPLLSGNYEITELDPANDQRAS | soluble |
| MSLKEANLLIDLRGEPGINCNGFCKFCYFRKVNKNNPQPFGCRYCQFTVGCDYCMYSVREINGDFIPLPFALMELQSSLLFKRYSKVNLTAGGDVSCYPQLEELCKAINNIGLKIHLGYTSGKGFDNVEIAKNLVDYGVDEVTFSVFSTNPKLRKEWMNDKNAETALKCLRYFCENCEVHCAIIVIPGVNDGEELKKTVSDLVDWGANAVILMRFANSEEQGLILGNAPLIEGIKPHSVEEFKNIVDEIHNEFGDYIRVTGTPLHDPVAGTPFALAKEENSHILERLKDKINGEATIITGNVAYPFLKKIFDETSVNVVKVNKDIADLITAKDLEKLDLKDVKETVFIPPKAFVHDRVAEEILRRDGVDRIVVRGVEQLTLDGEVSGIYTREEALKFEIEAFEELIGMINFFGMKKQEGHHHHHH | soluble |
| MSFRGTVKWFSKDKGYGFITREDTNADVFVHFTDIQMEGFKTLQKGQKVEFDVVEDTKGPRAKNVRVLGE | soluble |
| MSLKTSRLPIAIQQAVMRRLREKLAQANLKLGRNYPEPKLSYTQRGTSAGTAWLESYEIRLNPVLLLENSEAFIEEVVPHELAHLLVWKHFGRVAPHGKEWKWMMESVLGVPARRTHQFELQSVRRNTFPYRCKCQEHQLTVRRHNRVVRGEAVYRCVHCGEQLVAKEGHHHHHH | not soluble |
| GPGSMVSRDSRYIHRRWYLEDATLTIQQPKLELLVDFDDPSSFAFPANLPPTLGMRRAAAVATATGGLSGVMGLGSEGNLLADWREIGIPPFTEE | not soluble |
| NGYEALIMTHSAVTDPPLMIRSADNSLIKADDKTLLTALEAEGIGSYSFILTGEGLVKTKYRQQAVSLMGVDDRYPRTVKIDSIVFAGTFATDTLSGATALNVGAAIATEMQLGAGFVEAVEVIVPRRIGLINPLVPAGAFKSLQGQVASVFASGLQPEDNSIILSIDSLRKLLDYSDHEAEAVAIQLRTGSDAEQIALRLKETLGDSYQVLDLAGQHPEITHLIAMEKWMS | not soluble |
| MGSDKIHHHHHHMPTPRPWLYLGTTHALCEDCLALIPAKVVAEDGCVWHLKRCPAHGPQRTMISSDYAYWREARDFIKPGDLPAHFHTQVDKGCPHDCGLCPDHEQHSCLALVEVTDSCGLDCPTCFAQSRPGRGHRSLAEVEAMLDAVVRSEGGSPDIVQISGGEPADHPQILEILRAAKARPIRHVMLNTNGVRLARDPDFATALAGLGPGFEVYLQWDSLEPEALSVLRGADLREVRKGALAALDRHGISTTLVCVMAKGVNDGEVGAIIDHALAVACVRGVSFQPLQDAGRSPGLGKDSRMLPSDIRRAIIEQSNGLFGPADLVPLPCNPESITIAYALRHGNRATAVTGLVPRDLLLSAVPNALTFDAVPGLKDSLMRLLSMSCAGEDTAVQMGKLLCCLPGIQAPASLTYDKVFRLSIVQFLDRYSFCLGQVKRACVHVAQPDGKMIPIDTFNLFHRSNNHD | not soluble |

From the DeepSol protein solubility set
